B1: Hammerhead Ribozyme (parent)
chain: ACCGGAUGUGCUUUCCGGUCUGAUGAGUCCGUGAGGACGAAACAG

Variants of: B1
Assay: self-cleavage, relative activity (ratio to wild type); higher = more cleavage; co-transcriptional

Variant	self-cleavage
ACCGGAUGUGCUUACCGGUCUGAUGAGUCCGUGAUGACGAAACAG [U14A G35U]	0.721
ACCGGAUGUGCUUACCGGUCUGAUGAGUCCGUGAAGACGAAACAG [U14A G35A]	0.665
ACCGGAUGUGCUUACCGGUCUGAUGAGUCCGUGACGACGAAACAG [U14A G35C]	0.654
ACCGGAUGUGCUGUCCGGUCUGAUGAGUCCGUAAGGACGAAACAG [U13G G33A]	0.959
ACCGGAUGUGCUGUCCGGUCUGAUGAGUCCGUCAGGACGAAACAG [U13G G33C]	1.06
ACCGGAUGUGCUGUCCGGUCUGAUGAGUCCGUUAGGACGAAACAG [U13G G33U]	0.801
ACCGGAUGUGCUUACCGGUCUGAUGACUCCGUGAGGACGAAACAG [U14A G27C]	0.661
ACCGGAUGUGCUUACCGGUCUGAUGAUUCCGUGAGGACGAAACAG [U14A G27U]	0.405
ACCGGAUGUGCUUACCGGUCUGAUGAAUCCGUGAGGACGAAACAG [U14A G27A]	0.771
ACCGGAUGUGCUGUCCGGUCUGAUGAGACCGUGAGGACGAAACAG [U13G U28A]	0.673
ACCGGAUGUGCUGUCCGGUCUGAUGAGGCCGUGAGGACGAAACAG [U13G U28G]	0.973
ACCGGAUGUGCUGUCCGGUCUGAUGAGCCCGUGAGGACGAAACAG [U13G U28C]	1.01
ACCGGAUGUGCUGUCCGGUCUGAUGAGUCCGUGAGGACAAAACAG [U13G G39A]	0.332
ACCGGAUGUGCUGUCCGGUCUGAUGAGUCCGUGAGGACUAAACAG [U13G G39U]	0.299
ACCGGAUGUGCUGUCCGGUCUGAUGAGUCCGUGAGGACCAAACAG [U13G G39C]	0.396
ACCGGAUGUGCUUACCGGUCUGAUGAGUCAGUGAGGACGAAACAG [U14A C30A]	0.838
ACCGGAUGUGCUUACCGGUCUGAUGAGUCUGUGAGGACGAAACAG [U14A C30U]	0.96
ACCGGAUGUGCUUACCGGUCUGAUGAGUCGGUGAGGACGAAACAG [U14A C30G]	0.624
ACCGGAUGUGCUGUCCGGUCUGAUGAGUCCGUGACGACGAAACAG [U13G G35C]	0.819

Variant	self-cleavage
ACCGGAUGUGCUGUCCGGUCUGAUGAGUCCGUGAAGACGAAACAG [U13G G35A]	0.916
ACCGGAUGUGCUGUCCGGUCUGAUGAGUCCGUGAUGACGAAACAG [U13G G35U]	0.873
ACCGGAUGUGCUGUCCGGUCUGAUGAGUCCGGGAGGACGAAACAG [U13G U32G]	0.74
ACCGGAUGUGCUGUCCGGUCUGAUGAGUCCGAGAGGACGAAACAG [U13G U32A]	1.01
ACCGGAUGUGCUGUCCGGUCUGAUGAGUCCGCGAGGACGAAACAG [U13G U32C]	0.986
ACCGGAUGUGCUUACCGGUCUGAUGAGUCCGUGAGGACGGAACAG [U14A A40G]	0.296
ACCGGAUGUGCUUACCGGUCUGAUGAGUCCGUGAGGACGCAACAG [U14A A40C]	0.491
ACCGGAUGUGCUUACCGGUCUGAUGAGUCCGUGAGGACGUAACAG [U14A A40U]	0.237
ACCGGAUGUGCUUACCGGUCUGAUGAGUCCGUGAGGACGAACCAG [U14A A42C]	0.296
ACCGGAUGUGCUUACCGGUCUGAUGAGUCCGUGAGGACGAAGCAG [U14A A42G]	0.279
ACCGGAUGUGCUUACCGGUCUGAUGAGUCCGUGAGGACGAAUCAG [U14A A42U]	0.272
ACCGGAUGUGCUUACCGGUCUGAUGAGUCCGUGAGUACGAAACAG [U14A G36U]	0.528
ACCGGAUGUGCUUACCGGUCUGAUGAGUCCGUGAGAACGAAACAG [U14A G36A]	0.485
ACCGGAUGUGCUUACCGGUCUGAUGAGUCCGUGAGCACGAAACAG [U14A G36C]	0.319
ACCGGAUGUGCUUACCGGUCUGAUGCGUCCGUGAGGACGAAACAG [U14A A26C]	0.47
ACCGGAUGUGCUUACCGGUCUGAUGUGUCCGUGAGGACGAAACAG [U14A A26U]	0.65
ACCGGAUGUGCUUACCGGUCUGAUGGGUCCGUGAGGACGAAACAG [U14A A26G]	0.343
ACCGGAUGUGCUUACCGGUCUGAUGAGUCCGUGAGGACAAAACAG [U14A G39A]	0.359
ACCGGAUGUGCUUACCGGUCUGAUGAGUCCGUGAGGACCAAACAG [U14A G39C]	0.276

Variant	self-cleavage
ACCGGAUGUGCUUACCGGUCUGAUGAGUCCGUGAGGACUAAACAG [U14A G39U]	0.315
ACCGGAUGUGCUUACCGGUCUGAUGAGUCCGUGAGGUCGAAACAG [U14A A37U]	0.618
ACCGGAUGUGCUUACCGGUCUGAUGAGUCCGUGAGGCCGAAACAG [U14A A37C]	0.815
ACCGGAUGUGCUUACCGGUCUGAUGAGUCCGUGAGGGCGAAACAG [U14A A37G]	0.811
ACCGGAUGUGCUGUCCGGUCUGAAGAGUCCGUGAGGACGAAACAG [U13G U24A]	1.36
ACCGGAUGUGCUGUCCGGUCUGAGGAGUCCGUGAGGACGAAACAG [U13G U24G]	0.654
ACCGGAUGUGCUGUCCGGUCUGACGAGUCCGUGAGGACGAAACAG [U13G U24C]	0.83
ACCGGAUGUGCUGUCCGGACUGAUGAGUCCGUGAGGACGAAACAG [U13G U19A]	0.301
ACCGGAUGUGCUGUCCGGGCUGAUGAGUCCGUGAGGACGAAACAG [U13G U19G]	0.314
ACCGGAUGUGCUGUCCGGCCUGAUGAGUCCGUGAGGACGAAACAG [U13G U19C]	0.767
ACCGGAUGUGCUUACCGGUCUGAUGAGUCCGUUAGGACGAAACAG [U14A G33U]	0.872
ACCGGAUGUGCUUACCGGUCUGAUGAGUCCGUCAGGACGAAACAG [U14A G33C]	0.987
ACCGGAUGUGCUUACCGGUCUGAUGAGUCCGUAAGGACGAAACAG [U14A G33A]	0.751
ACCGGAUGUGCUUACCGUUCUGAUGAGUCCGUGAGGACGAAACAG [U14A G18U]	0.644
ACCGGAUGUGCUUACCGCUCUGAUGAGUCCGUGAGGACGAAACAG [U14A G18C]	0.456
ACCGGAUGUGCUUACCGAUCUGAUGAGUCCGUGAGGACGAAACAG [U14A G18A]	0.327
ACCGGAUGUGCUUACCGGUCUGAUGAGUACGUGAGGACGAAACAG [U14A C29A]	0.608
ACCGGAUGUGCUUACCGGUCUGAUGAGUUCGUGAGGACGAAACAG [U14A C29U]	0.557
ACCGGAUGUGCUUACCGGUCUGAUGAGUGCGUGAGGACGAAACAG [U14A C29G]	0.562

Source: the RNAGym collection of RNA variant scans (doi:10.7554/elife.80360)
